Results as given in patent US20170313750A1 (Novo Nordisk, published 2017).
Numbered stars: 1 amine (or outer) side, 2 acyl side, 3 side chain; on linkers, the order of the positions; unused ones are H or OH. Side chains are listed from the residue outwards. * marks the point of attachment. C18 diacid = O=C(O)CCCCCCCCCCCCCCCCC(=O)*; γGlu = O=C(O)[C@H](CCC(=O)[*:2])N[*:1]; Isovaleryl = CC(C)CC(=O)*; AEEA = NCCOCCOCC(=O)O

T1: human Y1 receptor (P25929, NPY1R_HUMAN, Uniprot) (human, UniProt P25929 1-384)
T1 construct: whole, on cells; Assayed as membrane preparations of the expressing cells; also called NPY-Y1 receptor
T1 sequence (looked up): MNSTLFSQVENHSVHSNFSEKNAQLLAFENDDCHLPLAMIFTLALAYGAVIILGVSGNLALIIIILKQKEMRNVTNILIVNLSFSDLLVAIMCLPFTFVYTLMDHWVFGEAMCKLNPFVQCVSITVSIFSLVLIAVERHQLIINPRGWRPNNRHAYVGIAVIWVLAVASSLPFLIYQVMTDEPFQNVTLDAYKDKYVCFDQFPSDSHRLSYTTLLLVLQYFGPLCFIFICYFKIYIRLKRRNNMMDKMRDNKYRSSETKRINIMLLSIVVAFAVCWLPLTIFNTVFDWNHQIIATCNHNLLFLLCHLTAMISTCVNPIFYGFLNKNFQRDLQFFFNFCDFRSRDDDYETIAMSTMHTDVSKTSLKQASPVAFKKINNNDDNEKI

T2: human Y2 receptor (P49146, NPY2R_HUMAN, Uniprot) (human, UniProt P49146 1-381)
T2 sequence (looked up): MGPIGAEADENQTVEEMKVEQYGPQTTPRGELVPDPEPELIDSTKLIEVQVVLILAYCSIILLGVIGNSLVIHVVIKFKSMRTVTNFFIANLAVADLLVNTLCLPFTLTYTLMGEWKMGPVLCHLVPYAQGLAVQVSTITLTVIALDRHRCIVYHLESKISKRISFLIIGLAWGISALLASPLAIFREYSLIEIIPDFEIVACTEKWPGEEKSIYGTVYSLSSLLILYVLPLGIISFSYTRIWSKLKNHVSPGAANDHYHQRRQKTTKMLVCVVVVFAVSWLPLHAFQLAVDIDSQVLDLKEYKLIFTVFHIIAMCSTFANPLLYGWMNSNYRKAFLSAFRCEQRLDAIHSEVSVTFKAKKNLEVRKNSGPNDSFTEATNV

T3: human Y5 receptor (Q15761, NPY5R_HUMAN, Uniprot) (human, UniProt Q15761 1-445)
T3 construct: whole, on cells; Assayed as membrane preparations of the expressing cells
T3 sequence (looked up): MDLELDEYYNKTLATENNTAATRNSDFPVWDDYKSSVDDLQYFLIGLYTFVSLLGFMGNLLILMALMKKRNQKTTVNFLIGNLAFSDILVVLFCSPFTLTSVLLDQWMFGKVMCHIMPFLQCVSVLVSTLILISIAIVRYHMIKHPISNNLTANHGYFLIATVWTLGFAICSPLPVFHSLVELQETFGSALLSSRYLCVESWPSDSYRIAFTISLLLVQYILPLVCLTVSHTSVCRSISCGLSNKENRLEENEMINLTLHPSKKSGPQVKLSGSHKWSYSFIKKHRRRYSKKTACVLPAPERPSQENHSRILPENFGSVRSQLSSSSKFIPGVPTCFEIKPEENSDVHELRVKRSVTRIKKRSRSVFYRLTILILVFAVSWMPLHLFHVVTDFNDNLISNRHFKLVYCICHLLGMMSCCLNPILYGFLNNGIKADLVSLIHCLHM


What was measured:
[1] = molecular target: human Y4 receptor (P50391, NPY4R_HUMAN, Uniprot) (human) (UniProt P50391); assay: ratio of SPA values, Y2 as reference
Chain of human Y4 receptor (P50391, NPY4R_HUMAN, Uniprot) (human) (P50391 whole entry): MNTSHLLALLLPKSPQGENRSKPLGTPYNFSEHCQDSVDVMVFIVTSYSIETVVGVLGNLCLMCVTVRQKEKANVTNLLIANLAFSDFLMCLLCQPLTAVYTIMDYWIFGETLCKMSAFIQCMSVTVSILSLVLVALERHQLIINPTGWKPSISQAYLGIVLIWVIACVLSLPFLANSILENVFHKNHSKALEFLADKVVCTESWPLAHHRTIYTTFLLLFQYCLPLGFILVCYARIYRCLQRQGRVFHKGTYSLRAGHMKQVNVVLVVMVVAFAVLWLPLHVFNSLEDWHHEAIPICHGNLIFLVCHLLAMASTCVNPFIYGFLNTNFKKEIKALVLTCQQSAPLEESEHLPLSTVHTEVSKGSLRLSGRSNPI

[2] = molecular target: T1, human Y1 receptor (P25929, NPY1R_HUMAN, …); assay: SPA vs [125I]-PYY(1-36)
Procedure: (§1) Human Y receptor SPA binding assay were performed in white 96-well plates in a total volume of 200 μl per well.
(§2) Plates were sealed and incubated at +25° C. for 2 hours in a plate shaker set at 400 rpm and thereafter centrifuged at 1500 rpm for 10 minutes prior to reading of luminescence on a microplate scintillation and luminescence counter.

[3] = molecular target: T2, human Y2 receptor (P49146, NPY2R_HUMAN, …); assay: cell-based or functional assay
[4] = molecular target: T2, human Y2 receptor (P49146, NPY2R_HUMAN, …); assay: SPA vs [125I]-PYY(1-36)
Procedure: as §1, §2

[5] = molecular target: T3, human Y5 receptor (Q15761, NPY5R_HUMAN, …); assay: SPA vs [125I]-PYY(1-36)
Procedure: as §1, §2

[6] = molecular target: T4, human Y4 receptor (P50391, NPY4R_HUMAN, Uniprot) (human, UniProt P50391 1-375); assay: ratio of SPA values, Y2 as reference
T4 construct: whole, on cells; Assayed as membrane preparations of the expressing cells
T4 sequence (P50391 whole entry): as above
Procedure: as §1, §2

[7] = molecular target: T3, human Y5 receptor (Q15761, NPY5R_HUMAN, …); assay: ratio of SPA values, Y2 as reference
Procedure: as §1, §2

[8] = molecular target: T4, human Y4 receptor (P50391, NPY4R_HUMAN, …); assay: SPA vs [125I]-PP
Procedure: as §1, §2

Row | Molecule | Ratio of Y4/Y2 SPA binding values [1] | Ki [2] | Y2 EC50, Actone functional potency assay [3] | Ki [4] | Ki [5] | Ratio of Y4/Y2 EC50 values [6] | Ratio of Y5/Y2 EC50 values [7] | Ki [8]
1 | N{alpha-4}-(3-Methylbutanoyl)-N{Epsilon-7}-[2-[2-[2-[[2-[2-[2-[[2-[2-[2-[[2-[2-[2-[[(4S)-4-carboxy-4-(17-carboxyheptadecanoylamino)butanoyl]amino]-ethoxy]ethoxy]acetyl]amino]ethoxy]ethoxy]acetyl]amino]ethoxy]ethoxy]acetyl]amino]ethoxy]ethoxy]acetyl]-[Arg4,Lys7,Pro9,Gln18,Tyr28,Trp30,Leu31]-PYY(4-36) (peptide) | > 18300 |  |  |  |  |  |  | 
2 | RPEKPTEDASPEELQRYYASLRHYYNWLTRQRY (N-terminal alpha-amino (position 4): 3-methylbutanoyl; Lys7 (hPYY(1-36) numbering) epsilon-amino: [2-[2-[2-[[2-[2-[2-[[(4S)-4-carboxy-4-(17-carboxyheptadecanoylamino)butanoyl]amino]ethoxy]ethoxy]acetyl]amino]ethoxy]ethoxy]acetyl]; C-terminal amide, also called Compound 14; 14) |  | 8820 nM |  |  |  |  |  | 
3 | Isovaleryl-RPEAPGK([AEEA-AEEA-γGlu-C18 diacid])DASPEELQRYYESLRHYYNWLTRQRY-NH2 (SMILES CC(C)CC(=O)N[C@@H](CCCNC(=N)N)C(=O)N1CCC[C@H]1C(=O)N[C@@H](CCC(=O)O)C(=O)N[C@@H](C)C(=O)N1CCC[C@H]1C(=O)NCC(=O)N[C@@H](CCCCNC(=O)COCCOCCNC(=O)COCCOCCNC(=O)CC[C@H](NC(=O)CCCCCCCCCCCCCCCCC(=O)O)C(=O)O)C(=O)N[C@@H](CC(=O)O)C(=O)N[C@@H](C)C(=O)N[C@@H](CO)C(=O)N1CCC[C@H]1C(=O)N[C@@H](CCC(=O)O)C(=O)N[C@@H](CCC(=O)O)C(=O)N[C@@H](CC(C)C)C(=O)N[C@@H](CCC(N)=O)C(=O)N[C@@H](CCCNC(=N)N)C(=O)N[C@@H](Cc1ccc(O)cc1)C(=O)N[C@@H](Cc1ccc(O)cc1)C(=O)N[C@@H](CCC(=O)O)C(=O)N[C@@H](CO)C(=O)N[C@@H](CC(C)C)C(=O)N[C@@H](CCCNC(=N)N)C(=O)N[C@@H](Cc1c[nH]cn1)C(=O)N[C@@H](Cc1ccc(O)cc1)C(=O)N[C@@H](Cc1ccc(O)cc1)C(=O)N[C@@H](CC(N)=O)C(=O)N[C@@H](Cc1c[nH]c2ccccc12)C(=O)N[C@@H](CC(C)C)C(=O)N[C@H](C(=O)N[C@@H](CCCNC(=N)N)C(=O)N[C@@H](CCC(N)=O)C(=O)N[C@@H](CCCNC(=N)N)C(=O)N[C@@H](Cc1ccc(O)cc1)C(N)=O)[C@@H](C)O, also called Compound 51; 51) |  | 2400 nM | 0.99 nM | 2.3 nM | 116 nM | > 4350 | 50 | 
4 | Isovaleryl-RPEAPPK([γGlu-AEEA-γGlu-C18 diacid])DASPEELQRYYASLRHYYNWLTRQRY-NH2 (SMILES CC(C)CC(=O)N[C@@H](CCCNC(=N)N)C(=O)N1CCC[C@H]1C(=O)N[C@@H](CCC(=O)O)C(=O)N[C@@H](C)C(=O)N1CCC[C@H]1C(=O)N1CCC[C@H]1C(=O)N[C@@H](CCCCNC(=O)CC[C@H](NC(=O)COCCOCCNC(=O)CC[C@H](NC(=O)CCCCCCCCCCCCCCCCC(=O)O)C(=O)O)C(=O)O)C(=O)N[C@@H](CC(=O)O)C(=O)N[C@@H](C)C(=O)N[C@@H](CO)C(=O)N1CCC[C@H]1C(=O)N[C@@H](CCC(=O)O)C(=O)N[C@@H](CCC(=O)O)C(=O)N[C@@H](CC(C)C)C(=O)N[C@@H](CCC(N)=O)C(=O)N[C@@H](CCCNC(=N)N)C(=O)N[C@@H](Cc1ccc(O)cc1)C(=O)N[C@@H](Cc1ccc(O)cc1)C(=O)N[C@@H](C)C(=O)N[C@@H](CO)C(=O)N[C@@H](CC(C)C)C(=O)N[C@@H](CCCNC(=N)N)C(=O)N[C@@H](Cc1c[nH]cn1)C(=O)N[C@@H](Cc1ccc(O)cc1)C(=O)N[C@@H](Cc1ccc(O)cc1)C(=O)N[C@@H](CC(N)=O)C(=O)N[C@@H](Cc1c[nH]c2ccccc12)C(=O)N[C@@H](CC(C)C)C(=O)N[C@H](C(=O)N[C@@H](CCCNC(=N)N)C(=O)N[C@@H](CCC(N)=O)C(=O)N[C@@H](CCCNC(=N)N)C(=O)N[C@@H](Cc1ccc(O)cc1)C(N)=O)[C@@H](C)O, also called Compound 56; 56) |  |  | 0.54 nM | 1.4 nM | 279 nM | 3060 | 193 | 4410 nM
5 | Isovaleryl-RPEAPPK([γGlu-AEEA-γGlu-C18 diacid])DASPEELQRYYESLRHYYNWLTRQRY-NH2 (also called Compound 54; 54) |  | 2420 nM | 1.6 nM | 3.1 nM | 254 nM |  |  | 5910 nM
